Laboratory results taken from US20230174596A1 (published 2023).

T1: hVEGF-A (8-109) (human, UniProt P15692 214-315)
T1 construct: residue numbers count on mature VEGF-A; dimer
T1 sequence (looked up): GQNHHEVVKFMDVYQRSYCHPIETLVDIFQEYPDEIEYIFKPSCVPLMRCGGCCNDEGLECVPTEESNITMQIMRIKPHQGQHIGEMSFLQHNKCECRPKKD


Biological target: T1, hVEGF-A (8-109)
Assay: spot phage ELISA

Row | Binder | ELISA | S/N | binding result
1 | GCNIMLPFWGCGKELNCLAGCVCQYYQSCG (designed binder) [VEGF_CKP9.54.69] | 2.5 | 21.7 | 
2 | GCKNPLFNWALYCKQDSDCLAGCVCQLFDSCG (designed binder) [VEGF_CKP7.8] | 0.5 | 7.5 | 
3 | GCQLLQPLWGCKQDSDCLAGCVCRWYQSCG (designed binder) [VEGF_CKP9.71] | 1 | 16.5 | 
4 | GCDDPSFDWSVYCKQDSDCLAGCVCRMYDSCG (designed binder) [VEGF_CKP7.2] | 1.2 | 21.5 | 
5 | GCLDPSFNWSLYCKQDSDCLAGCVCQMYDSCG (designed binder) [VEGF_CKP7.57] | 1 | 17.4 | 
6 | GCLDPTVNWALFCKQDSDCLAGCVCQHYKTCG (designed binder) [VEGF_CKP7.81] | 1.1 | 18.6 | 
7 | GCQDPSLNWADYCKQDSDCLAGCVCQMHQSCG (designed binder) [VEGF_CKP7.50] | 0.8 | 14.3 | 
8 | GCNIMLPFWGCSRDFDCLAGCVCQYYQSCG (designed binder) [VEGF_CKP9.54.44] | 2.4 | 34.4 | 
9 | GCNIMLPFWGCGWDQFCLAGCVCQYYQSCG (designed binder) [VEGF_CKP9.54.51] | 2.5 | 44.5 | 
10 | GCNIMLPFWGCGVDYLCLAGCVCQYYQSCG (designed binder) [VEGF_CKP9.54.16] | 2.4 | 30.8 | 
11 | GCALLQPLWGCKQDSDCLAGCVCRWYNSCG (designed binder) [VEGF_CKP9.69] | 1 | 14.3 | 
12 | GCKIMQPLWGCKQDSDCLAGCVCLWYDSCG (designed binder) [VEGF_CKP9.47] | 1 | 14.6 | 
13 | GCNIMLPFWGCQADYACLAGCVCQYYQSCG (designed binder) [VEGF_CKP9.54.14] | 2.5 | 23.5 | 
14 | GCRTPWEPHDITCKQDSDCLAGCVCGPNGFCG (designed binder) [VEGF_CKP11] | 4.1 | 57.5 | 
15 | GCVTPWKPHWINCKQDSDCLAGCVCGPNGFCG (designed binder) [VEGF_CKP13] | 3.5 | 56.3 | 
16 | GCNIMLPFWGCGTNFLCLAGCVCQYYQSCG (designed binder) [VEGF_CKP9.54.31] | 2.3 | 32.5 | 
17 | GCQDPTVNWAVYCKQDSDCLAGCVCQFYQSCG (designed binder) [VEGF_CKP7.17] | 0.8 | 13.4 | 
18 | GCQDPTLNWATYCKQDSDCLAGCVCQMYQSCG (designed binder) [VEGF_CKP7.43] | 0.5 | 6.3 | 
19 | GCQDPTFNWAEYCKQDSDCLAGCVCQLYQSCG (designed binder) [VEGF_CKP7.19] | 0.6 | 11.1 | 
20 | GCQDPTFNWAEYCKQDSDCLAGCVCQMYQSCG (designed binder) [VEGF_CKP7.35] | 0.6 | 10.6 | 
21 | GCQLMHPFWGCKQDSDCLAGCVCHWYRSCG (designed binder) [VEGF_CKP8] | 3.9 | 59.4 | 
22 | GCNIMLPFWGCGLDYDCLAGCVCQYYQSCG (designed binder) [VEGF_CKP9.54.2] | 0.1 | 26 | 
23 | GCETDWYPHQIDCKQDSDCLAGCVCGPNGFCG (designed binder) [VEGF_CKP1] | 0.9 | 16.9 | 
24 | GCHMMYDYCKQDSDCLAGCVCEMYDACG (designed binder) [VEGF_CKP3] | 3.1 | 42.9 | 
25 | GCNIMLPFWGCSGDFACLAGCVCQYYQSCG (designed binder) [VEGF_CKP9.54.64] | 2.2 | 22.4 | 
26 | GCNIMLPFWGCGYDLQCLAGCVCQYYQSCG (designed binder) [VEGF_CKP9.54.87] | 2.4 | 26.1 | 
27 | GCNIMLPFWGCGWSMDCLAGCVCQYYQSCG (designed binder) [VEGF_CKP9.54.76] | 2.7 | 42.2 | 
28 | GCDVMQPYWGCEMDFDCLAGCICHWYNSCGFS (designed binder) [9.63-4] |  |  | binds

Row | Binder | ELISA | S/N | binding result
29 | GCDVMQPYWGCEMDFDCLAGCICHWYNSCGSR (designed binder) [9.63-25] |  |  | binds
30 | GCDVMQPYWGCEMDFDCLAGCICHWYNSCGFS (designed binder) [9.63.44-1] |  |  | binds
31 | GCDVMQPYWGCEMDFDCLAGCICHWYNSCGYA (designed binder) [9.63-22] |  |  | binds
32 | GCDVMQPYWGCEMDFDCLAGCVCHWYNSCGPL (designed binder) [9.63-70] |  |  | binds
33 | GCDVMQPYWGCEMDFDCLAGCVCHWYNSCGGI (designed binder) [9.63-67] |  |  | binds
34 | GCDVMQPYWGCEMDFDCLAGCICHWYNSCGYA (designed binder) [9.63.44-3] |  |  | binds
35 | GCDVMQPYWGCEMDFDCLAGCICHWYNSCGTS (designed binder) [9.63-72] |  |  | binds
36 | GCDVMQPYWGCEMDFDCLAGCICHWYNSCGQV (designed binder) [9.63-20] |  |  | binds
37 | GCDVMQPYWGCEMDFDCLAGCICHWYNSCGLQ (designed binder) [9.63-79] |  |  | binds
38 | GCDVMQPYWGCEMDFDCLAGCICHWYNSCGSR (designed binder) [9.63.44-4] |  |  | binds
39 | GCDVMQPYWGCEMDFDCLAGCICHWYNSCGQV (designed binder) [9.63.44-2] |  |  | binds
40 | GCRDLTINWALFCKQDSDCLAGCVCQMFNSCG (designed binder) [VEGF_CKP7.73] | 1.2 | 19.2 | 
41 | GCRLLEPSWGCKQDSDCLAGCVCQWYQSCG (designed binder) [VEGF_CKP9.72] | 0.6 | 10 | 
42 | GCNIMLPFWGCGPELNCLAGCVCQYYQSCG (designed binder) [VEGF_CKP9.54.12] | 2.4 | 38.8 | 
43 | GCKLFEPLWGCKQDSDCLAGCVCRWYESCG (designed binder) [VEGF_CKP9.96] | 1.2 | 18.4 | 
44 | GCNIMLPFWGCGKDFHCLAGCVCQYYQSCG (designed binder) [VEGF_CKP9.54.56] | 2.3 | 35.8 | 
45 | GCQDPKLNWAVYCKQDSDCLAGCVCQLFNSCG (designed binder) [VEGF_CKP7.88] | 0.5 | 7.7 | 
46 | GCNIMLPFWGCNRDFLCLAGCVCQYYQSCG (designed binder) [VEGF_CKP9.54.48] | 2.5 | 34.9 | 
47 | GCWDPTFNWALYCKQDSDCLAGCVCQMYDSCG (designed binder) [VEGF_CKP7.24] | 0.8 | 13.4 | 
48 | GCLDRTLNWALYCKQDSDCLAGCVCQMYNSCG (designed binder) [VEGF_CKP7.54] | 0.5 | 9.3 | 
49 | GCNIMLPFWGCGPDLQCLAGCVCQYYQSCG (designed binder) [VEGF_CKP9.54.59] | 2.3 | 35.4 | 
50 | GCNLMHPFWGCKQDSDCLAGCVCHWYQSCG (designed binder) [VEGF_CKP9.51] | 1 | 11 | 
51 | GCGETVFEQFLWCKQDSDCLAGCVCGPNGFCG (designed binder) [VEGF_CKP2] | 3.2 | 48.1 | 
52 | GCKDTTFNWGLFCKQDSDCLAGCVCQLYQSCG (designed binder) [VEGF_CKP7.78] | 0.7 | 11.8 | 
53 | GCHLLLPLWGCKQDSDCLAGCVCRWYHSCG (designed binder) [VEGF_CKP9.76] | 1.3 | 15.5 | 
54 | GCNIMLPFWGCGQSFECLAGCVCQYYQSCG (designed binder) [VEGF_CKP9.54.1] | 2.4 | 29.9 | 
55 | GCLDPSFDWALYCKQDSDCLAGCVCQLYNSCG (designed binder) [LRP6_CKP7.89] | 0.5 | 8.1 | 
